Patent publication US20040265963

System: T1, Tkip (tyrosine kinase inhibitor peptide), WLVFFVIFYFFR
T1 sequence: WLVFFVIFYFFR

## recombinant human Src
  c-src tyrosine phosphorylation of a synthetic substrate peptide, in vitro kinase assay: Tkip at 50 µM failed to inhibit c-src phosphorylation of a protein substrate
